Patent US20250121104A1 (FUSION PHARMACEUTICALS, published 2025)

Experiments:
Experiment in all cases: ELISA, antigen coated at 1 µg/mL, antibody titrated from 10 µg/mL
[1] = target: T1, Ron (CD136) (UniProt Q04912 25-957, limits assumed)
T1 sequence (looked up): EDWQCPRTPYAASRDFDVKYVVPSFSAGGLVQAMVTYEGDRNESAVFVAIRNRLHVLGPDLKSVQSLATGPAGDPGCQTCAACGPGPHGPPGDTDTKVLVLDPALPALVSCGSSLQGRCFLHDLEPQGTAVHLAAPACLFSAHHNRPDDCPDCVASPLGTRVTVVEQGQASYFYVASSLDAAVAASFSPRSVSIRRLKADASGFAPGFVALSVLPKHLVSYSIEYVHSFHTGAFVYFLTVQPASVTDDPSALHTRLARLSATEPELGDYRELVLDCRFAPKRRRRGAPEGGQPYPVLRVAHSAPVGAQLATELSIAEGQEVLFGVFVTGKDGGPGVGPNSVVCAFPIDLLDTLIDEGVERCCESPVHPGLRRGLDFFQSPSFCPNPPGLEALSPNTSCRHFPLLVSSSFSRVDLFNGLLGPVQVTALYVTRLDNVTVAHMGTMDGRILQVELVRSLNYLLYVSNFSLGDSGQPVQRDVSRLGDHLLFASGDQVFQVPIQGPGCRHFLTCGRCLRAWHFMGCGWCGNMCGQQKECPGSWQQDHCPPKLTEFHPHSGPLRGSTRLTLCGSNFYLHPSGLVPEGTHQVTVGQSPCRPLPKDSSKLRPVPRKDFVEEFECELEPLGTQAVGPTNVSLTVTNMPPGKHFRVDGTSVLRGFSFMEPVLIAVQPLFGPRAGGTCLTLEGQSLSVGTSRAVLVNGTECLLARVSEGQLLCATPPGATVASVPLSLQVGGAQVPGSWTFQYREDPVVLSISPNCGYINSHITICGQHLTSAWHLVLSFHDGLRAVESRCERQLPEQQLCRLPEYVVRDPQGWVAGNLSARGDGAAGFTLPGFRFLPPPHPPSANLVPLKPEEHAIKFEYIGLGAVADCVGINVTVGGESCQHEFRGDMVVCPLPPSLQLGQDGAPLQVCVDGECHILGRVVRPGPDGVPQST
Experimental: (§1) Specificity for EGFR and cMET species paralogs and closely related family members was determined by ELISA. Briefly, antigen solutions were prepared in PBS at 1 μg/mL and 50 microliters was coated onto half area ELISA assay plates. Plates were washed and blocked with 1% BSA in PBS containing 0.005% Tween-20 (PBS-T) for one hour at room temperature. […] Wells were incubated with 50 microliters of the indicated primary antibodies diluted in PBS-T in a 1:3 dilution series, starting at 10 μg/mL and ending at 0.002 μg/mL, except for the HER4 binding mAb control, MAB1131, for which the series started at 1 μg/mL. The wells were washed 4 times in PBS-T, then 50 μl of goat anti-human Fab HRP-labeled secondary antibody, diluted 1:5000 in PBS-T, was added to each well and incubated for one hour at room temperature. […] 50 microliters of TMB stop solution was added to all wells and the absorbance was read at 450 nm on a SpectraMax M5 microplate reader. Data were analyzed in the SoftMax Pro 5 software and plotted using GraphPad Prism 7 graphing software.
(§2) To determine the species cross reactivity, ELISA assays were carried out as described above.

[2] = target: T2, Semaphorin 3a (UniProt Q14563 21-771, limits assumed)
T2 sequence (looked up): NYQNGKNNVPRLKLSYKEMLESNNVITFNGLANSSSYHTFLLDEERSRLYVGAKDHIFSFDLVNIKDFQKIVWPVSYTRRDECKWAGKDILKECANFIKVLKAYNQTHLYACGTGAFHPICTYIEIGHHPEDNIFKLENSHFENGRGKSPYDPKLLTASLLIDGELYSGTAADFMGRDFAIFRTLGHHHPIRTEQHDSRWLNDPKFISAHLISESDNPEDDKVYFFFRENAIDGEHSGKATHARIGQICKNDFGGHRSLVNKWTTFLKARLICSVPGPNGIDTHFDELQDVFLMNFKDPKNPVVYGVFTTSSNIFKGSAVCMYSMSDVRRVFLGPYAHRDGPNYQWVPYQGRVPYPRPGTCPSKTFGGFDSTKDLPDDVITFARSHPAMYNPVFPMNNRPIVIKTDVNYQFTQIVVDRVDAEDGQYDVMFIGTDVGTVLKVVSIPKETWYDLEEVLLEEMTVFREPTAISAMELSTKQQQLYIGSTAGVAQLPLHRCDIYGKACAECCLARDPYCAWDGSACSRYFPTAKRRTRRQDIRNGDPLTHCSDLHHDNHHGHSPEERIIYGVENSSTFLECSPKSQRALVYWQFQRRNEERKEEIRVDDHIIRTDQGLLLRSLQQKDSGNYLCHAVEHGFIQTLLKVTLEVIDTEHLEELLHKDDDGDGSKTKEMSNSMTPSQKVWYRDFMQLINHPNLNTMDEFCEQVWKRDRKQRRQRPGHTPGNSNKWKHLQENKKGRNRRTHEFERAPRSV
Experimental: as §1, §2

[3] = target: mouse cMET (recombinant) (mouse, UniProt P16056 25-929, limits assumed)
Chain of mouse cMET (recombinant) (P16056 25-929 limits assumed): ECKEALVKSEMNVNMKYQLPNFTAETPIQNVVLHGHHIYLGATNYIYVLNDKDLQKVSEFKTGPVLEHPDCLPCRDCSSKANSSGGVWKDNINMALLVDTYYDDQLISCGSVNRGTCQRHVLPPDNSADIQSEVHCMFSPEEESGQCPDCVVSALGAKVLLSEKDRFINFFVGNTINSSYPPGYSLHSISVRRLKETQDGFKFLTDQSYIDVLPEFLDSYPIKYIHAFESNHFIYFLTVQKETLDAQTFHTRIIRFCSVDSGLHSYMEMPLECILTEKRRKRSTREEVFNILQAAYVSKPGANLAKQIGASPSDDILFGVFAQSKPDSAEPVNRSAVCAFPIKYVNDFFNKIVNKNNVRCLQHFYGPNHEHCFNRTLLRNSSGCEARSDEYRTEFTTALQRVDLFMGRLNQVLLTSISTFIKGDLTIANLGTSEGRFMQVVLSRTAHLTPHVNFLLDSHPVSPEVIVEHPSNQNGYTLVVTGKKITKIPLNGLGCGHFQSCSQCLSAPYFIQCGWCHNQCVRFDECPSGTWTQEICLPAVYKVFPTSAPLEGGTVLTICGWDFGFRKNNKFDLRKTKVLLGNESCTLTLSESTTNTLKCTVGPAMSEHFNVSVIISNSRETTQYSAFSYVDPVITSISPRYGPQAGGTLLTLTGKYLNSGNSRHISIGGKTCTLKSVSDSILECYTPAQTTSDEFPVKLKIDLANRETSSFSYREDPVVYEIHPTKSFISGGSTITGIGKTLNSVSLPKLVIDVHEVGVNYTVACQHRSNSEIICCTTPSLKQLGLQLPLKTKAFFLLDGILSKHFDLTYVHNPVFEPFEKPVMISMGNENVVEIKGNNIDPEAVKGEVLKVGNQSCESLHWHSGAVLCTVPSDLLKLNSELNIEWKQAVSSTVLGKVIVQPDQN
Experimental: as §1, §2

Measured: binding result

B1: RAA22/B09-57 DuetMab (bispecific antibody, V domains shown)
VH 1: QVQLVQSGAEVKKPGSSVKVSCKASGGTFSDNDFSWVRQAPGQGLEWMGAIVAVFRTETYAQKFQDRVKITADISTRTTYMELSSLRSEDTAVYYCARRLMSAISGPGAPLLMWGQGTLVTVSS
VL 1: QSALTQPRSVSGSPGQSVTISCTGTSSDVGGYNYVSWYQQHPGKAPKLMIYDVSKRPSGVPDRFSGSKSGNTASLTISGLQAEDEADYYCSSYTSSDTLEIFGGGTKLTVL
VH 2: QVQLVQSGAEVKKPGASVKVSCKASGYTFTDYYIHWVRQATGQGLEWMGWMNPNSGNTGYAQKFQGRVTMTRDTSISTAYMELSSLRSEDTAVYYCARGQGYTHSWGQGTMVTVSS
VL 2: DIQMTQSPSTLSASVGDRVTITCRASEGIYHWLAWYQQKPGKAPKLLIYKASSLASGVPSRFSGSGSGTEFTLTISSLQPDDFATYYCQQYSNYPPTFGGGTKLEIK
notes: RAA22 VH on Hole heavy chain (T366S, L368A, Y407V, Y349C) with lambda CL; cysteine insertion after S239; also called RAA22/B09 DuetMab; RAA22/B09 bispecific mAb
no binding (tested: 10 µg/mL): all assays above
